# Test results from IntAct's records for PubMed 29039417.
# B1: Protein PTHB1 (Homo sapiens), Q3SYG4 (parent)
# chain: MSLFKARDWWSTILGDKEEFDQGCLCLANVDNSGNGQDKIIVGSFMGYLRIFSPHPAKTGDGAQAEDLLLEVDLRDPVLQVEVGKFVSGTEMLHLAVLHSRKLCVYSVSGTLGNVEHGNQCQMKLMYEHNLQRTACNMTYGSFGGVKGRDLICIQSMDGMLMVFEQESYAFGRFLPGFLLPGPLAYSSRTDSFLTVSSCQQVESYKYQVLAFATDADKRQETEQQKLGSGKRLVVDWTLNIGEQALDICIVSFNQSASSVFVLGERNFFCLKDNGQIRFMKKLDWSPSCFLPYCSVSEGTINTLIGNHNNMLHIYQDVTLKWATQLPHIPVAVRVGCLHDLKGVIVTLSDDGHLQCSYLGTDPSLFQAPNVQSRELNYDELDVEMKELQKIIKDVNKSQGVWPMTEREDDLNVSVVVSPNFDSVSQATDVEVGTDLVPSVTVKVTLQNRVILQKAKLSVYVQPPLELTCDQFTFEFMTPDLTRTVSFSVYLKRSYTPSELEGNAVVSYSRPTDRNPDGIPRVIQCKFRLPLKLICLPGQPSKTASHKITIDTNKSPVSLLSLFPGFASQSDDDQVNVMGFHFLGGARITVLASKTSQRYRIQSEQFEDLWLITNELILRLQEYFEKQGVKDFACSFSGSIPLQEYFELIDHHFELRINGEKLEELLSERAVQFRAIQRRLLARFKDKTPAPLQHLDTLLDGTYKQVIALADAVEENQGNLFQSFTRLKSATHLVILLIALWQKLSADQVAILEAAFLPLQEDTQELGWEETVDAAISHLLKTCLSKSSKEQALNLNSQLNIPKDTSQLKKHITLLCDRLSKGGRLCLSTDAAAPQTMVMPGGCTTIPESDLEERSVEQDSTELFTNHRHLTAETPRPEVSPLQGVSE
# partner: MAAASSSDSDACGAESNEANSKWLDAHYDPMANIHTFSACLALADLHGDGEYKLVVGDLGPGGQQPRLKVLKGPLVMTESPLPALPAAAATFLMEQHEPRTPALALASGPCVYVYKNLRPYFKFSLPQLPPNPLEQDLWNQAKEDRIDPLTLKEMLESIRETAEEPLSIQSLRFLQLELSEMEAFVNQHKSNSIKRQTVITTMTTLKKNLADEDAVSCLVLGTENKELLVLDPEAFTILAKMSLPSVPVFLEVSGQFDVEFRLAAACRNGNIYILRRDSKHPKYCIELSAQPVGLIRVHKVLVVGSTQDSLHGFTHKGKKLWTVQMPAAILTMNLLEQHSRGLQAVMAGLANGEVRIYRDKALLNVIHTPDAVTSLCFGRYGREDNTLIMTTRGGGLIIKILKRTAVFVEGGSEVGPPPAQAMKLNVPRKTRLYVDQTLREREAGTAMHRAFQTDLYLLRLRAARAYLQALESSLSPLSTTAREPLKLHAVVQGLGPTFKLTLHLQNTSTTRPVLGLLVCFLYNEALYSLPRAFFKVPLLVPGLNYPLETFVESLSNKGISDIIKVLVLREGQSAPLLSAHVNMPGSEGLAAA
# Variants of: B1
# Conditions: with bbs1_human BBS1, Q8NFJ9
row,Variant,effect of a mutation on the interaction
1,I676K,with no effect
2,I676A,with no effect
3,E663A,with no effect
4,E663K,with no effect
5,H694K,with no effect
6,H694E,with no effect
7,H694A,with no effect
8,H694Y,disrupting interaction strength
9,H652E,with no effect
10,H652A,with no effect
11,H652K,with no effect
12,D696A,with no effect
13,D696K,with no effect
14,D696E,with no effect
15,D696V,disrupting interaction strength
16,K685A,with no effect
17,K685E,with no effect
18,E647A,with no effect
19,E647K,with no effect
20,S667E,with no effect
21,S667F,disrupting interaction strength
22,S667A,with no effect
23,S667K,with no effect

row,Variant,effect of a mutation on the interaction
1,T688A,with no effect
2,T688K,disrupting interaction strength
3,T688E,with no effect
4,L665A,with no effect
5,L665K,with no effect
6,L665E,with no effect
7,L680E,with no effect
8,L680K,with no effect
9,L680A,with no effect
10,I657A,with no effect
11,I657K,with no effect
12,I657E,with no effect
13,R679E,with no effect
14,R679W,disrupting interaction strength
15,R679A,with no effect
16,R679K,with no effect
17,E660K,with no effect
18,E660A,with no effect
19,L662K,with no effect
20,L662E,with no effect
21,L662A,with no effect
22,Q643E,with no effect
23,Q643K,with no effect

row,Variant,effect of a mutation on the interaction
1,R669K,with no effect
2,R669A,with no effect
3,R669E,with no effect
4,T697A,with no effect
5,T697E,with no effect
6,T697K,with no effect
7,T697C,disrupting interaction strength
8,L681E,with no effect
9,L681K,with no effect
10,L681A,with no effect
11,K661A,with no effect
12,K661E,with no effect
13,L648K,with no effect
14,L648A,with no effect
15,L648E,with no effect
16,V671K,with no effect
17,V671E,with no effect
18,V671A,with no effect
19,A670K,with no effect
20,A670V,disrupting interaction strength
21,A670E,with no effect
22,L698E,with no effect
23,L698A,with no effect

row,Variant,effect of a mutation on the interaction
1,L698K,with no effect
2,F653K,with no effect
3,F653A,with no effect
4,F653E,with no effect
5,F646A,with no effect
6,F646K,with no effect
7,F646E,with no effect
8,P691S,disrupting interaction strength
9,P691L,disrupting interaction strength
10,P691K,with no effect
11,P691E,with no effect
12,P691A,with no effect
13,D700K,with no effect
14,D700E,with no effect
15,D700A,with no effect
16,L699K,disrupting interaction strength
17,L699A,with no effect
18,L699E,with no effect
19,E664K,with no effect
20,E664A,with no effect
